Experimental data taken from the supplement of paper PMC10201428.
± gives the standard deviation of the averaged measurements.

Key:
[1] = tested on: VchCAST RNA-guided transposition machinery (E. coli BL21(DE3) host, lacZ target); assay: relative integration efficiency (T-RL orientation) vs wild-type transposon end (log2 (normalized fold change)); transposon end mutated: right end (5 bp flank + 75 bp right end); higher = more efficient transposition
Summary of the method: (§1)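 In E. coli BL21(DE3), a T7-driven effector plasmid was paired with a pUC57 mini-transposon donor containing 1549 left-end or 1849 right-end barcoded transposon variants. Cells grew on plates with 0.1 mM IPTG at 37°C for 18 h. Relative integration efficiency was derived from Illumina reads of genomic integration junctions against input plasmids, as a log-transformed output/input barcode fold change normalised to reference barcodes.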

[2] = tested on: VchCAST RNA-guided transposition machinery (E. coli BL21(DE3) host, lacZ target); assay: relative integration efficiency (T-LR orientation) vs wild-type transposon end (log2 (normalized fold change)); transposon end mutated: right end (5 bp flank + 75 bp right end); higher = more efficient transposition
Summary of the method: as §1

Row | Sequence | relative integration efficiency (log2) [1] | relative integration efficiency (log2) [2]
1 | ACATTTGTTGATACAACCATAAAATGATAATTACCCCCATAAATTGATAATTATCACACCCCATTTAACTATAACGCTCTGATCATAGTCAGACCAACATTGCTACGACCCGTATTCGCACCGACAC | -0.917 ± 0.1 | 2.089 ± 0.0067
2 | ACATTTCTCGATACAACCATAAAATGATAATTACACCCATAAATGGATAATTATCACACCCAATTTAACTATAACGCTCTGATCATAGTCAGACCAACATTGCTACGACCCGTATTCGCACCGACAC | -1.99 ± 0.23 | 0.276 ± 0.061
3 | ACATTTGTTGATACAACCATAAAATGATAATTACACCCATAAATTGATAATTTCACACCCATAAATTGATATTGCCTCTGATCATAGTCAGACCAACATTGCTACGACCCGTATTCGCACCGACACT | -0.767 ± 0.17 | 0.745 ± 0.092
4 | ACATTTGTTGATACAACCATAAAACGATAATTACACCCATAAATGGATCATTATCACACCCAATTTAACTATAACGCTCTGATCATAGTCAGACCAACATTGCTACGACCCGTATTCGCACCGACAC | -1.78 ± 0.29 | 1.06 ± 0.24
5 | ACATTTGTTGCGCAAACCATAAAATGATAATTACACCCATAAATTGATAATTATCACACCCATAAATTGATATTGCCTCTGATCATAGTCAGACCAACATTGCTACGACCCGTATTCGCACCGACAC | -0.839 ± 0.087 | -2.91 ± 0.35
6 | ACATTTGTGGATACAACCATAAAATGATAATTACACCCATAAATGGATAATTATCACCCCCAATTTAACTATAACGCTCTGATCATAGTCAGACCAACATTGCTACGACCCGTATTCGCACCGACAC | -1.15 ± 0.23 | 1.55 ± 0.31
7 | ACATTTGTTCATACAACCATAAAATGATAATTACACCCATAAATTCATAATTATCACCCCCAATTTAACTATAACGCTCTGATCATAGTCAGACCAACATTGCTACGACCCGTATTCGCACCGACAC | -1.62 ± 0.43 | -0.0689 ± 0.64
8 | ACATTTGTTGATACAACCATATAATGATAATAACACCCCTAAAATGATAATTATCACACCCAATTTAACTATAACGCTCTGATCATAGTCAGACCAACATTGCTACGACCCGTATTCGCACCGACAC | -2.99 ± 0.37 | 0.598 ± 0.1
9 | ACATTTGTTGATACAACCATAAAATGATCATTACACCCATCAATTGATAATTATCCCACCCCATTTAACTATAACGCTCTGATCATAGTCAGACCAACATTGCTACGACCCGTATTCGCACCGACAC | -2.65 ± 0.32 | 1.04 ± 0.071
10 | ACATTTGTTGATACAACCATAAAATGATAATTACACCCATAAATTGATAATTATCACACCCATAAATTGATCGGTAAGAGGATCATAGTCAGACCAACATTGCTACGACCCGTATTCGCACCGACAC | -0.421 ± 0.075 | 1.33 ± 0.2
11 | ACATTTGTTGATACAACCATAAAATGATAATTACAACCATATATTGATATCTCTCACACCCATAAATTGATATTGCCTCTGATCATAGTCAGACCAACATTGCTACGACCCGTATTCGCACCGACAC | -0.424 ± 0.15 | 0.0992 ± 0.38
12 | ACATTTGTTGATACAACCATAAAATGATAATTACACCCATAAAGGTCGCCGGCGACACAAACGCCCGGTCGCGGTAAGAGGATCATAGTCAGACCAACATTGCTACGACCCGTATTCGCACCGACAC | -2.2 ± 0.37 | 0.613 ± 0.011
13 | ACATTTGTTGATACCACCATCAAATGATAATTCCACCCCTAAATTGATAATTATCACACCCAATTTAACTATAACGCTCTGATCATAGTCAGACCAACATTGCTACGACCCGTATTCGCACCGACAC | -5.24 ± 0.34 | -2.31 ± 0.042
14 | ACATTTGTTGATACAACCATAAAATGATATAATCACCCATAAATTGATATAATTCACACCCATAAATTGATAAACGCTCTGATCATAGTCAGACCAACATTGCTACGACCCGTATTCGCACCGACAC | -1.01 ± 0.15 | 0.045 ± 0.14
15 | ACATTTGTTGATACAACCATAAAATGATAATTACACCCAATAATTGATAATTATCACACCCATAAATTGATATTGCCTCTGATCATAGTCAGACCAACATTGCTACGACCCGTATTCGCACCGACAC | -0.277 ± 0.02 | -0.381 ± 0.18
16 | ACATTTGTTGATACAACCATAACCGTATAATTACACCCATAAATTGATAATTATCACACCCATAAATTGATATTGCCTCTGATCATAGTCAGACCAACATTGCTACGACCCGTATTCGCACCGACAC | -1.41 ± 0.21 | -1.78 ± 0.49
17 | ACATTTGTTGATACAACCAATAAATGATAAATACACCCATAAATTGATAATGATGACACCGAATTTAACTATAACGCTCTGATCATAGTCAGACCAACATTGCTACGACCCGTATTCGCACCGACAC | -1.58 ± 0.26 | 1.75 ± 0.069
18 | ACATTTCTTCATACAACCATAAAATGATAATTACACCCATAAATTGATAATTATCACACCCAATTTAACTATAACGCTCTGATCATAGTCAGACCAACATTGCTACGACCCGTATTCGCACCGACAC | -3.68 ± 0.52 | -2.1 ± 0.57
19 | ACATTAGTGGATACAACCATAAAATGATAATTACACCCATAAATTCATCATTATCACACCCAATTTAACTATAACGCTCTGATCATAGTCAGACCAACATTGCTACGACCCGTATTCGCACCGACAC | -7.21 ± 0.51 | -4.73 ± 0.58
20 | ACATTTGTTGATACAACCATAAAATCATCATTCACCCATAAATTGATAATTATCACACCCACATTTAACTATAACGCTCTGATCATAGTCAGACCAACATTGCTACGACCCGTATTCGCACCGACAC | -5.68 ± 0.095 | -1.73 ± 0.67
21 | ACATTTCTCGATACAACCATAAAATGATAATTACACCCATAAATTCATCATTATCACACCCAATTTAACTATAACGCTCTGATCATAGTCAGACCAACATTGCTACGACCCGTATTCGCACCGACAC | -3.05 ± 0.46 | 0.303 ± 0.055
22 | ACATTTGTTGATACAACCATTTTTTGATAATTACACCCATAAATTGATAATTATCACACCCATAAATTGATATTGCCTCTGATCATAGTCAGACCAACATTGCTACGACCCGTATTCGCACCGACAC | -0.627 ± 0.016 | -0.748 ± 0.44
23 | ACATTTGTTGATACAACCATAAAAGTCGCCGGCACAAACGCCCGGTCGCCGGCGACACAAACGCCCGGTCGCGGTAAGAGGATCATAGTCAGACCAACATTGCTACGACCCGTATTCGCACCGACAC | -5.34 ± 0.34 | -2.61 ± 0.042
24 | ACATTTGTTGATACAACCATAAAATGATAATTACACCCATAAATTGATAATTATCAGTGGGTATTTAACTATAACGCTCTGATCATAGTCAGACCAACATTGCTACGACCCGTATTCGCACCGACAC | -0.681 ± 0.17 | 2.65 ± 0.1
25 | ACATTTGTTGATACAACCCGAAAATGATAATTACACCCATAAATTGATAATTATCACACCCATAAATTGATATTGCCTCTGATCATAGTCAGACCAACATTGCTACGACCCGTATTCGCACCGACAC | -3.8 ± 0.095 | -3.67 ± 0.84
26 | ACATTTGTTGATACAACCATAAAATGATAATTACACCCATAAATTGATAATTATCAACAAACGCCCGGTCGCGGTACTCTGATCATAGTCAGACCAACATTGCTACGACCCGTATTCGCACCGACAC | -0.287 ± 0.0067 | 2.66 ± 0.038
27 | ACATTTGTTGATACAACCATAAAATGATAATTACCCCCATCAATTGATAATTATCACACCCAATTTAACTATAACGCTCTGATCATAGTCAGACCAACATTGCTACGACCCGTATTCGCACCGACAC | -2.23 ± 0.41 | 0.506 ± 0.048
